Test results published in US20240262899A1 (UNIVERSITY OF VIRGINIA PATENT FOUNDATION, published 2024).

Molecular target: T1, histone H3 (H3) peptide, unmodified (UniProt P68431 2-31)
T1 construct: A synthetic peptide of histone H3, not the whole protein; also called unmodified H3
Assay: western blot of peptides
Description: Four distinct peptides—histone H3 (H3), citrullinated histone H3 (CitH3; 4 Cit), acetylated histone H3 (AccH3), and methylated histone H3 (MetH3)—at a concentration of 0.5 microgram each, were run in duplicate through SDS-polyacrylamide gel electrophoresis and then transferred to a nitrocellulose membrane (FIG. 7A). This membrane was split into two sections for parallel probing with an equal quantity of Cayman CitH3-mAb (Ann Arbor, MI) or hCitH3-mAb (2 μg/ml) overnight. Post three extensive washes, the sections were incubated with HRP-conjugated secondary antibodies specific to mouse IgG and human IgG (Jackson ImmunoResearch Labs. Cat #309-035-008), respectively, for 2 hours. For concurrent signal development, both membrane sections were exposed simultaneously for the same duration.

B1: Y1128-VH3/VL3 (hCitH3-mAb) (antibody, V domains shown)
VH: EVQVVQSGAEVKKPGATVKISCKASGFNIKDYYMHWMKQRPEQGLEWIGWIDPENGNTIYDPKFQGRATITSDTSTDTAYLELSSLRSEDTAVYYCAPFGNYVWFAYWGQGTLVTVSS
VL: DVLMTQSPLSLPVTLGQPASISCRSSQSIVHSNGITYLEWYLQRPGQSPKLLIYKVSNRFSGVPDRFSGSGSGTDFTLKISRVEAEDVGLYYCFQGSHVPFTFGQGTKLEIKR
notes: Final lead humanized antibody; intact IgG, detected with anti-human IgG secondary; also called H3L3; humanized CitH3 monoclonal antibody
B1: no binding (tested: 2 ug/ml antibody; 0.5 microgram peptide).
